The values below come from PMC2172186 (The Journal of Cell Biology, 2004).

In test [1] the target is TgMyoA (Toxoplasma gondii myosin-A, class XIV myosin) (Toxoplasma gondii (endogenous in RH strain parasites)) (UniProt O00934). In words: co-IP.
Test [2] deals with TgMyoA (Toxoplasma gondii myosin-A, class XIV myosin) (Toxoplasma gondii (endogenous in RH …, UniProt O00934 1-831)). The test is described as follows: co-IP.

For “TgMLC1 (Toxoplasma gondii myosin light chain-1) (natural protein)”, the molar ratio to TgMyoA in the complex in test [1] stood at 1.38.

B1: TgGAP45 (Toxoplasma gondii gliding-associated protein 45) (natural protein, UniProt Q7Z289 1-245, looked up)
chain: MGNACKKNTAKTPTRKEAEDLAEKERQEREAKEKAEAEEKARAEAEKNAADKAEAERRAAEAREREESARKEAEAEAARKAEAEAAEAERLRKEAEKKKAEEAKRKAEEEQRAAAEEAEQRAREEAERRKAEAAAAAERERQMQEALKQEEMSPREKYDKLASPEDSASETTMATQPQKVAEHSSAAVTDRSVVGYTVTPCDMAAIDETAKYLSKRCGCDLGDQHDENECPICRHIDLSDAPLLN
Regarding B1, in test [2], the “molar ratio to TgMyoA in the complex” value stood at 1.31.
